According to article PMC5109244:

Key:
[1] = target: chimeric DNGR-1:dectin-1 ECD (neck region of long mouse DNGR-1 fused to the CTLD of dectin-1) (mouse); assay: non-reducing SDS-PAGE and Western blot; supernatants of 293F cells with FLAG-tagged ECD proteins, Laemmli buffer without reducing agent, HRP-conjugated anti-FLAG detection
[2] = target: full-length WT DNGR-1 (mouse, long isoform), transmembrane receptor (mouse); assay: reducing SDS-PAGE and Western blot; Phoenix cells expressing full-length DNGR-1 lysed in 1% SDS in 10 mM MES pH 6.1; reducing conditions; anti-DNGR-1 (clone 397) detection
[3] = target: full-length WT DNGR-1 (mouse, long isoform), transmembrane receptor (mouse); assay: reducing SDS-PAGE and Western blot; Phoenix cells expressing full-length DNGR-1 lysed in 1% SDS in PBS; reducing conditions; anti-DNGR-1 (clone 397) detection; reduction-sensitive (type-1) dimers run as monomers
[4] = target: full-length Δ4 DNGR-1 (mouse, long isoform; N81–T90 removed) (mouse); assay: reducing SDS-PAGE and Western blot; Phoenix cells expressing full-length DNGR-1 lysed in 1% SDS in 10 mM MES pH 6.1; reducing conditions; anti-DNGR-1 (clone 397) detection
[5] = target: full-length Δ4 DNGR-1 (mouse, long isoform; N81–T90 removed) (mouse); assay: reducing SDS-PAGE and Western blot; Phoenix cells expressing full-length DNGR-1 lysed in 1% SDS in PBS; reducing conditions; anti-DNGR-1 (clone 397) detection; reduction-sensitive (type-1) dimers run as monomers
[6] = target: long mouse DNGR-1 ECD (extracellular domain of the long isoform of mouse DNGR-1, wild type) (mouse); assay: non-reducing SDS-PAGE and Western blot; purified long mouse ECD in PBS or 10 mM MES pH 6.1, Laemmli buffer or 8 M urea, no reducing agent
[7] = target: long mouse DNGR-1 ECD (extracellular domain of the long isoform of mouse DNGR-1, wild type) (mouse); assay: non-reducing SDS-PAGE and Western blot; supernatants of 293F cells with FLAG-tagged ECD proteins, Laemmli buffer without reducing agent, HRP-conjugated anti-FLAG detection
[8] = target: long mouse DNGR-1 ECD (extracellular domain of the long isoform of mouse DNGR-1, wild type) (mouse); assay: reducing SDS-PAGE and Western blot; purified ECD diluted into buffers of low pH and low ionic strength (10 mM MES pH 6.1; 10 mM Tris; 36 buffers of pH 6.5–8.05 and 15–250 mM ionic strength); 100 mM DTT in Laemmli buffer; reduction-resistant (type-2) dimers
[9] = target: Δ3A mutant long mouse DNGR-1 ECD (all residues of block 3, L72–L82, replaced by alanines) (mouse); assay: non-reducing SDS-PAGE and Western blot; supernatants of 293F cells with FLAG-tagged ECD proteins, Laemmli buffer without reducing agent, HRP-conjugated anti-FLAG detection
[10] = target: Δ4 mutant long mouse DNGR-1 ECD (N81–T90 removed) (mouse); assay: reducing SDS-PAGE and Western blot; supernatants with FLAG-tagged ECD proteins diluted into 10 mM MES pH 6.1; 100 mM DTT in Laemmli buffer; anti-FLAG detection; reduction-resistant (type-2) dimers
[11] = target: Δ4 mutant long mouse DNGR-1 ECD (N81–T90 removed) (mouse); assay: reducing SDS-PAGE and Western blot; supernatants with FLAG-tagged ECD proteins, neat or diluted into PBS (neutral conditions); reduced with DTT (100 mM) or β-ME in Laemmli buffer; anti-FLAG detection
[12] = target: Δ4A mutant long mouse DNGR-1 ECD (all residues of block 4, N81–T90, replaced by alanines) (mouse); assay: as above
[13] = target: Δ4A mutant long mouse DNGR-1 ECD (all residues of block 4, N81–T90, replaced by alanines) (mouse); assay: non-reducing SDS-PAGE and Western blot; supernatants of 293F cells with FLAG-tagged ECD proteins, Laemmli buffer without reducing agent, HRP-conjugated anti-FLAG detection
[14] = target: Δ6A mutant long mouse DNGR-1 ECD (all residues of block 6, Q95–S104, replaced by alanines) (mouse); assay: as above

Chain of long mouse DNGR-1 ECD (extracellular domain of the long isoform of mouse DNGR-1, wild type) (domain or fragment) (Q8BRU4 113-235): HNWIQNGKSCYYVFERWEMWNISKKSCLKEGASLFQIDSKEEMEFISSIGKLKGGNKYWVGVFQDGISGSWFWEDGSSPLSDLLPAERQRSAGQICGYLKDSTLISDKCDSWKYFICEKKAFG
Chain of full-length WT DNGR-1 (mouse, long isoform), transmembrane receptor (Q8BRU4 whole entry, canonical isoform): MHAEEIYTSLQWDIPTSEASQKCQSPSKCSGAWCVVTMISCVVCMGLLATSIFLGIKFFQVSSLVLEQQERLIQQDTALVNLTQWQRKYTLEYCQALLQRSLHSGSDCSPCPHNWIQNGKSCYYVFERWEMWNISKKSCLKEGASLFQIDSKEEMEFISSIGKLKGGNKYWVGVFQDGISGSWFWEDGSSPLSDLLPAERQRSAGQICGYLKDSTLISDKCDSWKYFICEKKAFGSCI

Substance: chimeric DNGR-1:dectin-1 ECD (neck region of long mouse DNGR-1 fused to the CTLD of dectin-1)
- stoichiometry N [1]: 2

Substance: full-length WT DNGR-1 (mouse, long isoform), transmembrane receptor
- stoichiometry N [2]: 2
- stoichiometry N [3]: 2

Substance: full-length Δ4 DNGR-1 (mouse, long isoform; N81–T90 removed) (receptor)
- stoichiometry N [4]: 2
- stoichiometry N [5]: 2

Substance: long mouse DNGR-1 ECD (extracellular domain of the long isoform of mouse DNGR-1, wild type) (domain or fragment)
- stoichiometry N [6]: 2
- stoichiometry N [7]: 2
- stoichiometry N [8]: 2

Substance: Δ3A mutant long mouse DNGR-1 ECD (all residues of block 3, L72–L82, replaced by alanines) (domain or fragment)
- stoichiometry N [9]: 2

Substance: Δ4 mutant long mouse DNGR-1 ECD (N81–T90 removed) (domain or fragment)
- stoichiometry N [10]: 2
- stoichiometry N [11]: 2

Substance: Δ4A mutant long mouse DNGR-1 ECD (all residues of block 4, N81–T90, replaced by alanines) (domain or fragment)
- stoichiometry N [12]: 2
- stoichiometry N [13]: 2

Substance: Δ6A mutant long mouse DNGR-1 ECD (all residues of block 6, Q95–S104, replaced by alanines) (domain or fragment)
- stoichiometry N [14]: 2
